From article PMC6019379, “RecA-like domain 2 of DNA-dependent ATPase A domain, a SWI2/SNF2 protein, mediates conformational integrity and ATP hydrolysis” (Bioscience Reports, 2018) come the findings set out here.

Positions count from the first letter of the chain named.

Experiment in all cases: intrinsic tryptophan fluorescence titration; no ATP; Fluorescence titration (ex 295 nm, em 340 nm), one-site saturation fit; buffer, salt, pH and temperature not given in the material. Wild-type ADAAD Kd values are cited from ref 24 and not listed
Details in all cases: protein: recombinant; tags: His (Ni-NTA, pET-14b); hairpin

The target in one data set is T1, ADAAD R595H (Bos taurus (bovine), UniProt Q9TTA5 221-940, R815H).
T1 sequence: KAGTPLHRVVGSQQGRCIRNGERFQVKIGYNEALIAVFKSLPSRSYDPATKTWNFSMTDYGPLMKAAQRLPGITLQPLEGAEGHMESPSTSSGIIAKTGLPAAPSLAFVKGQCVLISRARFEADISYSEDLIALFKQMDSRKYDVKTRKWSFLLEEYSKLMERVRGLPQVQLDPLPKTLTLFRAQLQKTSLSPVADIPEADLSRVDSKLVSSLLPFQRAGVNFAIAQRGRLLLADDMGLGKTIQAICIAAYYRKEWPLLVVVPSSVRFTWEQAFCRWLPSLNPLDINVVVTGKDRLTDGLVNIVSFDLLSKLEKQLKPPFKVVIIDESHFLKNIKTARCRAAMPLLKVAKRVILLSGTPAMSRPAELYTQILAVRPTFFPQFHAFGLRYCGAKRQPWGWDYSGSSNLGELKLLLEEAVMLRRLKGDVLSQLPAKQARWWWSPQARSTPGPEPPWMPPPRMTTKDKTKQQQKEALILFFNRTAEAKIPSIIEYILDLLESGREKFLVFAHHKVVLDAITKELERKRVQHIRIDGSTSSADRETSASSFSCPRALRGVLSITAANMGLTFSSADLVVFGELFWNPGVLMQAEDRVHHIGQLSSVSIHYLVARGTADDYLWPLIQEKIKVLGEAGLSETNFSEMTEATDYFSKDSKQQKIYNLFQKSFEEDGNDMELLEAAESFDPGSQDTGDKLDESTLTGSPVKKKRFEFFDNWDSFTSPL

The next data set deals with T2, ADAAD H594A (Bos taurus (bovine), UniProt Q9TTA5 221-940, H814A).
T2 sequence: T1 sequence with H594A, H595R

The target of the next data set is T3, ADAAD D591H (Bos taurus (bovine), UniProt Q9TTA5 221-940, D811H).
T3 sequence: T1 sequence with D591H, H595R

In general, Kd refers to the equilibrium constant for the complex coming apart.

Take GCGCAATTGCGCTCGACGATTTTTTAGCGCAATTGCGC (structured_DNA) [slDNA (stem-loop DNA)]: the Kd in the data set with ADAAD R595H was 24.3 ± 6.1 nM; with ADAAD H594A, 10.9 ± 2.6 nM; in the data set with ADAAD D591H, 21.3 ± 7 nM.
